The target of test [1] is T1, recombinant His-tagged AGO2 protein (human Argonaute 2, baculovirus-expressed) (human), Q9UKV8.
Test [2] deals with T1, recombinant His-tagged AGO2 protein …. The experiment in a line: TAT-26 peptide.
For test [3] the target is unchanged. The experiment in a line: TAT-11 peptide.

T1 sequence (Q9UKV8 other isoform, or with tags, fused parts or gaps limits assumed): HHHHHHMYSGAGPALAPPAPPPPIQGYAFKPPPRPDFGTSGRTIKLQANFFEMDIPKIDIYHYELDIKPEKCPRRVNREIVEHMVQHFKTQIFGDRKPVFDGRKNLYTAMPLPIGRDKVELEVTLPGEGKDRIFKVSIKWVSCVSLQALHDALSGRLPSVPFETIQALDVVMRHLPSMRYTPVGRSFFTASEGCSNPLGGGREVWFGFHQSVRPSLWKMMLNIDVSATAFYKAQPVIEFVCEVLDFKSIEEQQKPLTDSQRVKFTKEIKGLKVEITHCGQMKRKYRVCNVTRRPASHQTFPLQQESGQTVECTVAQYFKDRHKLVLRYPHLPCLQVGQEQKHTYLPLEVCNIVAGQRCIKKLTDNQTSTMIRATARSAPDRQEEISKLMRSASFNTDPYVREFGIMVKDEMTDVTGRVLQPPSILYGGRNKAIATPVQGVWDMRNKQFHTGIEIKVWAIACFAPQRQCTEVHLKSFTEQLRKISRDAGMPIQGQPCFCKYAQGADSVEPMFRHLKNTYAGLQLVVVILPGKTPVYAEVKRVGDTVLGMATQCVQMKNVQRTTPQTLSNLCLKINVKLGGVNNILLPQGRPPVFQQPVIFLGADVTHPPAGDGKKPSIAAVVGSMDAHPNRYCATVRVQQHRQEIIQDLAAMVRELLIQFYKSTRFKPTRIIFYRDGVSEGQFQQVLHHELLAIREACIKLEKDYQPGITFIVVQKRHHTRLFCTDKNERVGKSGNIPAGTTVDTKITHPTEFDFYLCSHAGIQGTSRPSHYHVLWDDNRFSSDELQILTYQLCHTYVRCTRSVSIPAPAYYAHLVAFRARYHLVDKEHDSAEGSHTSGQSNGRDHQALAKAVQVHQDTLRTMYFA

B1: TAT-26 decoy peptide (MSI1 peptide 26 with HIV-1 Tat (48-60) cell-penetrating peptide) (peptide)
peptide: HSLGGPLIATAFTNGGRKKRRQRRRPPQ
modifications: not checked
For orientation: koff means the first-order rate constant of dissociation. Usually kon stands for the rate constant with which the complex forms. One may read the Kd as the constant that tells how readily two partners part at equilibrium. Consider B1, for which, in test [1], the koff was determined as 0.00226 s⁻¹ and the on-rate constant (kon) was 488 M⁻¹ s⁻¹. Besides, in test [2], the Kd was 4.63 µM.

B2: TAT-11 decoy peptide (MSI1 peptide 11 with HIV-1 Tat (48-60) cell-penetrating peptide) (peptide)
peptide: YQFPEFRVERTPLPSGRKKRRQRRRPPQ
modifications: not checked
Take B2: the Kd in test [3] amounted to 3.33 µM. In addition, in test [1], the dissociation rate constant (koff) is 0.00274 s⁻¹ and the kon is 823 M⁻¹ s⁻¹.
